B1: PH and SEC7 domain-containing protein 1 (Homo sapiens), A5PKW4 (parent)
chain: MAQGAMRFCSEGDCAISPPRCPRRWLPEGPVPQSPPASMYGSTGSLLRRVAGPGPRGRELGRVTAPCTPLRGPPSPRVAPSPWAPSSPTGQPPPGAQSSVVIFRFVEKASVRPLNGLPAPGGLSRSWDLGGVSPPRPTPALGPGSNRKLRLEASTSDPLPARGGSALPGSRNLVHGPPAPPQVGADGLYSSLPNGLGGPPERLATLFGGPADTGFLNQGDTWSSPREVSSHAQRIARAKWEFFYGSLDPPSSGAKPPEQAPPSPPGVGSRQGSGVAVGRAAKYSETDLDTVPLRCYRETDIDEVLAEREEADSAIESQPSSEGPPGTAYPPAPRPGPLPGPHPSLGSGNEDEDDDEAGGEEDVDDEVFEASEGARPGSRMPLKSPVPFLPGTSPSADGPDSFSCVFEAILESHRAKGTSYTSLASLEALASPGPTQSPFFTFELPPQPPAPRPDPPAPAPLAPLEPDSGTSSAADGPWTQRGEEEEAEARAKLAPGREPPSPCHSEDSLGLGAAPLGSEPPLSQLVSDSDSELDSTERLALGSTDTLSNGQKADLEAAQRLAKRLYRLDGFRKADVARHLGKNNDFSKLVAGEYLKFFVFTGMTLDQALRVFLKELALMGETQERERVLAHFSQRYFQCNPEALSSEDGAHTLTCALMLLNTDLHGHNIGKRMTCGDFIGNLEGLNDGGDFPRELLKALYSSIKNEKLQWAIDEEELRRSLSELADPNPKVIKRISGGSGSGSSPFLDLTPEPGAAVYKHGALVRKVHADPDCRKTPRGKRGWKSFHGILKGMILYLQKEEYKPGKALSETELKNAISIHHALATRASDYSKRPHVFYLRTADWRVFLFQAPSLEQMQSWITRINVVAAMFSAPPFPAAVSSQKKFSRPLLPSAATRLSQEEQVRTHEAKLKAMASELREHRAAQLGKKGRGKEAEEQRQKEAYLEFEKSRYSTYAALLRVKLKAGSEELDAVEAALAQAGSTEDGLPPSHSSPSLQPKPSSQPRAQRHSSEPRPGAGSGRRKP

Variants of: B1
Conditions: with arf6_human ARF6, P62330
Chain of arf6_human ARF6, P62330 (P62330 whole entry): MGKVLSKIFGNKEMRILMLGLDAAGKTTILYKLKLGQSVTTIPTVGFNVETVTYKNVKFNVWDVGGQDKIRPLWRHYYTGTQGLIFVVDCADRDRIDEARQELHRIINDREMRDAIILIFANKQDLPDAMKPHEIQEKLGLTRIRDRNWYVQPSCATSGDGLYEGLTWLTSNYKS

Row | Variant | effect of a mutation on the interaction
1 | E621K | disrupting interaction

Variants of: B1
Conditions: with arf6_human ARF6, P62330
Remark: another data set of the same source

Row | Variant | effect of a mutation on the interaction
2 | E621K | decreasing interaction

Variants of: B1
Conditions: with arf6_human ARF6, P62330
Remark: another data set of the same source

Row | Variant | effect of a mutation on the interaction
3 | R765E | decreasing interaction
4 | K766E | decreasing interaction

— IntAct's records for PubMed 23603394
